Source: PMC3787022, “Small Angle X-Ray Scattering Studies of Mitochondrial Glutaminase C Reveal Extended Flexible Regions, and Link Oligomeric State with Enzyme Activity” (PLoS ONE, 2013)

Tests used:
[1] = target: the molecule itself; test: SEC-MALS; phosphate screen, K2HPO4 0, 25, 50 and 100 mM; protein 5 uM in the peak (injected 70 uM); WTC-030S5 column, 20 mM Tris-HCl pH 8.5, 500 mM NaCl, 23°C
D3Z7P3 = test: SAXS; phosphate (Pi) titration 0-100 mM, microfluidic mixing chip, 36 sec mixing time; GACwt constant at 30.7 uM, GACΔC constant at 33.8 uM; 20 mM Tris-HCl, 500 mM NaCl, 0.5 mM TCEP, 1 mM sodium azide; analysed with OLIGOMER; conditions: other: SAXS
[2] = target: the molecule itself; test: SEC-MALS; protein concentration screen 1.4-9.7 uM, no K2HPO4; WTC-030S5 column, 20 mM Tris-HCl pH 8.5, 500 mM NaCl, 23°C

B1: Glutaminase C wildtype construct (mouse GAC, residues 73-603) (enzyme, UniProt D3Z7P3-2 73-603, looked up)
chain: SSSPSEILQELGKGGTPPQQQQQQQQQPGASPPAAPGPKDSPGETDAFGNSEGKEMVAAGDNKIKQGLLPSLEDLLFYTIAEGQEKIPVHKFITALKSTGLRTSDPRLKECMDMLRLTLQTTSDGVMLDKDLFKKCVQSNIVLLTQAFRRKFVIPDFMSFTSHIDELYESAKKQSGGKVADYIPQLAKFSPDLWGVSVCTVDGQRHSIGDTKVPFCLQSCVKPLKYAIAVNDLGTEYVHRYVGKEPSGLRFNKLFLNEDDKPHNPMVNAGAIVVTSLIKQGVNNAEKFDYVMQFLNKMAGNEYVGFSNATFQSERESGDRNFAIGYYLKEKKCFPEGTDMVGILDFYFQLCSIEVTCESASVMAATLANGGFCPITGERVLSPEAVRNTLSLMHSCGMYDFSGQFAFHVGLPAKSGVAGGILLVVPNVMGMMCWSPPLDKMGNSVKGIHFCHDLVSLCNFHNYDNLRHFAKKLDPRREGGDQRHSFGPLDYESLQQELALKDTVWKKVSPESSDDTSTTVVYRMESLGERS
notes: GAC isoform of 603 residues; also called GACwt; GAC wildtype; source: expressed from a pET28a vector, purified (Ni-column, anion-exchange, gel filtration); not shown: histidine tag, N-terminal, cleaved
- stoichiometry N [1]: ~4
- volume fraction of octamers at 80 mM Pi (D3Z7P3): a maximum of 38% at 80 mM Pi
- stoichiometry N [2]: 4
